According to PMC7048787, “MCL1 binding to the reverse BH3 motif of P18INK4C couples cell survival to cell proliferation” (Cell Death & Disease, 2020):
Read-outs that look alike come from different tables or passages of the source. One block for each molecule: values may come before it. No end group written: not given here.

Legend:
[1] = tested on: WAC2 cells (MCL1 overexpressed); assay: PI DNA content flow cytometry, cell cycle population of MCL1-overexpressing WAC2 cells treated with BH3 mimetics; type: cell-based, human; settings: PI staining, N = 3, Fig. 6a; for effect on MCL1 overexpression induced decrease in G1 population: WAC2, MCL1 plasmid, then BH3 mimetic for 18 h, final DMSO 0.5%
[2] = biological target: T1, His6-MCL1 (human MCL1 residues 163-326) (human, UniProt Q07820 163-326); assay: fluorescence polarisation; competition FPA: 100 nM His6-MCL1 with variable unlabeled P18 protein or peptides for 10 min at RT, then 10 nM FITC-AHX-BAK for 1 h; 1x PBS pH 7.4, 100 uL, 96-well plates
T1 construct: Named His6-MCL1 in the FPA; called rMCL1 in the pull-downs; also called His-MCL1; recombinant MCL1; source: E. coli BL21(DE3), purified (nickel column, gel filtration); not shown: His6, N-terminal, kept
Target sequence in this assay (Q07820 163-326): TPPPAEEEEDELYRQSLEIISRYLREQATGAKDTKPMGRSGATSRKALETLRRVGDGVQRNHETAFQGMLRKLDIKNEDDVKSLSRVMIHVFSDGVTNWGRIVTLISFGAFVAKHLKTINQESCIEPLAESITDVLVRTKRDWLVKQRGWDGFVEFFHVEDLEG

recombinant MCL1 (rMCL1) = assay: In vitro pulldown of recombinant MCL1 by recombinant P18/P16 constructs; type: binding, human; settings: for pull-down of recombinant MCL1: Western blot of in vitro pulldown, recombinant proteins (IP), rMCL1 (IB), Fig. 2b
Text: Human MCL1 [Uniprot: Q07820] (residues 163–326), human P18 [Uniprot: P42773] (residues 1–168), A1–4 (P18 residues 1–140), A4–5 (P18 residues 106–168), P16 [Uniprot: P42771] (residues 1–156), and AC (P16 residues 1–113 and P18 residues 106–168) were sequence-optimized for bacterial expression and cloned into the restriction sites of NdeI and HindIII in a pET28a vector (EMD Millipore) to incorporate a N-terminal hexa-histidine (His6) tag and transformed into BL21(DE3) E. Coli (New England Bio Labs). Cultures were grown under kanamycin selection in Luria broth to a 600 nm optical density of 0.6 and expression was induced by addition of 1 mM isopropyl β-D-1-thiogalactopyranoside (Thermo Fisher). Cultures were harvested 3–4 h after induction by centrifugation at 4700 × g. Resulting bacterial pellets were stored at −80 °C. His6-MCL1 bacterial pellets were re-suspended (10 mL/wet g of pellet) in Buffer A (1 × PBS, pH 6.8) with the addition of 1× lysozyme (0.25 mg/mL) (Thermo Fisher) and 1 protease inhibitor tablet (Pierce #88266), sonicated, and cleared at 14,000 × g. Resulting lysate was purified on NGC FPLC (Bio-Rad Laboratories) using a 1 mL HiTrap HP nickel column (GE Healthcare) equilibrated with Buffer A. Protein was eluted with a 2 mM–1000 mM imidazole gradient. His-MCL1 containing fractions, as identified by denaturing polyacrylamide gel electrophoresis, were further purified by gel filtration in Buffer B (1× PBS, pH 6.8) on a HiPrep 16/60 Sephacryl S-100 column (GE Healthcare). Resulting protein identity was confirmed by matrix-assisted laser desorption/ionization (MALDI) mass spectrometry.
Fig. 2 MCL1 binds specifically to P18 through C-terminal rBH3. a Western blot of endogenous coIP of MCL1 (IP) with P18 (IB), BAX (IB), and P18 (IB) in WAC2. b Western blot of in vitro pulldown of recombinant proteins (IP), ANK1–4, ANK4–5, P18, p16, and chimera, with recombinant MCL1 (rMCL1) (IB). Cartoon of the p16, P18, and chimera proteins are shown below the blot. rBH3-containing helix is highlighted in yellow (Residues: 150–161). c Western blot of in vitro pulldown of recombinant P18 (IP) with rMCL1 (IB) with and without MCL1 inhibitor S63845.
P18 is a member of the INK4 protein family [P16INK4A (P16, CDKN2A), P15INK4B (P15, CDKN2B), P18INK4C (P18, CDKN2C), and P19INK4D (P19, CDKN2D)] that regulate G1/S cell cycle progression with all INK4 proteins retaining homologous CDK4/6 inhibitory function. INK4 family proteins have homologous structures containing either four or five ankyrin (ANK) repeats, a helix-turn-helix structural unit known to mediate protein-protein interactions[15],[17]. […] The rBH3 in P18 resides in its fifth ankyrin repeat (residues 141–168). […] Based on prior stability studies of ankyrin repeats within INK4 family proteins[18],[19], we designed two truncations of P18 (Supplementary Table S1). The first, P18-ANK1–4 (ANK1–4), removes the rBH3-containing fifth ankyrin repeat. The second, P18-ANK4–5 (ANK4–5), retains the rBH3 domain as well as ankyrin repeat 4 to facilitate folding.

[3] = biological target: T1, His6-MCL1 (human MCL1 residues 163-326); assay: pull-down; in vitro pulldown of recombinant P18, P16, truncated and chimeric proteins (IP) with recombinant MCL1 (IB); settings: both partners purified

Molecule: CC1(C)CCC(CN2CCN(c3ccc(C(=O)NS(=O)(=O)c4ccc(NCC5CCOCC5)c([N+](=O)[O-])c4)c(Oc4cnc5[nH]ccc5c4)c3)CC2)=C(c2ccc(Cl)cc2)C1 [ABT-199]
impact on sub-G1 cell population ([1]; WAC2, MCL1 overexpressed, BH3 mimetic 18 h): more significant impact on the sub-G1 cell population
effect on MCL1 overexpression induced decrease in G1 population [1]: no impact on the change in G1 population

IC50 [2]: 2500 nM
Molecule: P18 12-mer peptide (P18 rBH3) (from UniProt P42773 150-161)

Molecule: Cc1c(-c2c(-c3ccc(F)o3)sc3ncnc(O[C@H](Cc4ccccc4OCc4ccnn4CC(F)(F)F)C(=O)O)c23)ccc(OCCN2CCN(C)CC2)c1Cl [S63845]
disruption of P18 pulldown of MCL1 (recombinant MCL1 (rMCL1); recombinant P18 (IP) with rMCL1 (IB) with and without MCL1 inhibitor, Fig. 2c): suppressed the ability of P18 to pull-down MCL1
effect on MCL1 overexpression induced decrease in G1 population [1]: rescued the MCL1 overexpression induced decrease in G1 population back to control levels

IC50 ([2]; both partners purified): 778 nM
B1: P18 21-mer peptide (P18 residues 141-161) (peptide, UniProt P42773 141-161, looked up)
peptide: CDLARLYGRNEVVSLMQANGA
notes: Human P18 (P18INK4C), residues 141-161, holding the rBH3 motif (150-161); Made on rink amide MBHA resin, so the C-terminus is probably an amide (surmised); also called P18x peptides; source: synthetic peptide

IC50 ([2]; both partners purified): 113 nM
B2: P18 protein (human P18INK4C residues 1-168), recombinant (natural protein, UniProt P42773 1-168, looked up)
chain: MAEPWGNELASAAARGDLEQLTSLLQNNVNVNAQNGFGRTALQVMKLGNPEIARRLLLRGANPDLKDRTGFAVIHDAARAGFLDTLQTLLEFQADVNIEDNEGNLPLHLAAKEGHLRVVEFLVKHTASNVGHRNHKGDTACDLARLYGRNEVVSLMQANGAGGATNLQ
notes: Human P18 (P18INK4C, CDKN2C), residues 1-168, called full-length P18 protein in the results; The purification of this protein is not described; only that of His6-MCL1 is; also called CDKN2C; full-length P18 protein; source: E. coli BL21(DE3), recombinant

B3: P18^INK4C: human P18 [Uniprot: P42773] (residues 1–168), His6-tagged recombinant protein (protein)
chain: MAEPWGNELASAAARGDLEQLTSLLQNNVNVNAQNGFGRTALQVMKLGNPEIARRLLLRGANPDLKDRTGFAVIHDAARAGFLDTLQTLLEFQADVNIEDNEGNLPLHLAAKEGHLRVVEFLVKHTASNVGHRNHKGDTACDLARLYGRNEVVSLMQANGAGGATNLQ
modifications: left off: His6, N-terminal, state not stated
notes: human P18 [Uniprot: P42773]; (residues 1–168), His6-tagged recombinant protein
pull-down of recombinant MCL1 (recombinant MCL1 (rMCL1)): successfully pulled down MCL1

B4: P16: recombinant P16 [Uniprot: P42771] (residues 1–156), negative control (protein)
chain: MEPAAGSSMEPSADWLATAAARGRVEEVRALLEAGALPNAPNSYGRRPIQVMMMGSARVAELLLLHGAEPNCADPATLTRPVHDAAREGFLDTLVVLHRAGARLDVRDAWGRLPVDLAEELGHRDVARYLRAAAGGTRGSNHARIDAAEGPSDIPD
modifications: left off: His6, N-terminal, state not stated
notes: recombinant P16 [Uniprot: P42771]; (residues 1–156), negative control
pull-down of recombinant MCL1 (recombinant MCL1 (rMCL1)): showed no interaction

IC50 ([2]; both partners purified): > 30000 nM
Molecule: CDLARLYGRNEVVSLAQANGA (not fully specified (C-terminus)) [P18 rBH3 peptide with alanine substitution of M156]

binding result [3]: binds
B5: Chimeric protein of P16-ANK1-3 and P18-ANK4-5 (P16 residues 1-113 and P18 residues 106-168) (other, human, UniProt P42771 1-113, looked up)
chain: MEPAAGSSMEPSADWLATAAARGRVEEVRALLEAGALPNAPNSYGRRPIQVMMMGSARVAELLLLHGAEPNCADPATLTRPVHDAAREGFLDTLVVLHRAGARLDVRDAWGRLPLHLAAKEGHLRVVEFLVKHTASNVGHRNHKGDTACDLARLYGRNEVVSLMQANGAGGATNLQ
notes: Human P18 (P18INK4C), residues 106-168 (ankyrin repeats 4-5 with the rBH3 motif); also called AC; chimera; source: E. coli BL21(DE3), recombinant

B6: chimera: chimeric protein consisting of P16-ANK1–3 and P18-ANK4–5 (P16 residues 1–113 and P18 residues 106–168) (protein)
chain: MEPAAGSSMEPSADWLATAAARGRVEEVRALLEAGALPNAPNSYGRRPIQVMMMGSARVAELLLLHGAEPNCADPATLTRPVHDAAREGFLDTLVVLHRAGARLDVRDAWGRLPLHLAAKEGHLRVVEFLVKHTASNVGHRNHKGDTACDLARLYGRNEVVSLMQANGAGGATNLQ
modifications: left off: His6, N-terminal, state not stated
pull-down of recombinant MCL1 (recombinant MCL1 (rMCL1)): gained the ability to pulldown recombinant MCL1

B7: ANK1–4: P18 residues 1–140, truncation that removes the rBH3-containing fifth ankyrin repeat (protein)
chain: MAEPWGNELASAAARGDLEQLTSLLQNNVNVNAQNGFGRTALQVMKLGNPEIARRLLLRGANPDLKDRTGFAVIHDAARAGFLDTLQTLLEFQADVNIEDNEGNLPLHLAAKEGHLRVVEFLVKHTASNVGHRNHKGDTA
modifications: left off: His6, N-terminal, state not stated
notes: P18 residues 1–140, truncation that removes the rBH3-containing fifth ankyrin repeat
pull-down of recombinant MCL1 (recombinant MCL1 (rMCL1)): showed no interaction

IC50 ([2]; both partners purified): > 30000 nM
Molecule: CDLARLYGRNAVVSLMQANGA (not fully specified (C-terminus)) [P18 rBH3 peptide with alanine substitution of E151]

binding result [3]: binds
B8: P18-ANK4-5 (P18 residues 106-168) (domain or fragment, human, UniProt P42773 106-168, looked up)
chain: PLHLAAKEGHLRVVEFLVKHTASNVGHRNHKGDTACDLARLYGRNEVVSLMQANGAGGATNLQ
notes: Human P18 (P18INK4C), residues 106-168: ankyrin repeats 4 and 5, with the rBH3 motif; also called A4-5; source: E. coli BL21(DE3), recombinant

B9: ANK4–5: P18 residues 106–168, retains the rBH3 domain and ankyrin repeat 4 (protein)
chain: PLHLAAKEGHLRVVEFLVKHTASNVGHRNHKGDTACDLARLYGRNEVVSLMQANGAGGATNLQ
modifications: left off: His6, N-terminal, state not stated
pull-down of recombinant MCL1 (recombinant MCL1 (rMCL1)): successfully pulled down MCL1
